Where no end group is shown, it is not given here.
What was measured:
[1] = target: T1, recombinant CSN^ΔCSNAP complex (UniProt Q13098 1-491; Q9UNS2 1-423; Q92905 1-334; Q99627 2-209); test: SPR
[2] = target: T1, recombinant CSN^ΔCSNAP complex; test: SPR; remark: listed apart in the source

B1: D42E C-CSNAP peptide, C-terminally biotinylated (peptide)
peptide: EFFNDFEDLFDDDDIQ-biotin
[1]
  koff: 0.0027 s⁻¹
[2]
  Kd: 2.5 nM

B2: 20AA C-CSNAP peptide, C-terminally biotinylated (peptide)
peptide: AVHADFFNDFEDLFDDDDIQ-biotin
[1]
  koff: 0.001 s⁻¹
[2]
  Kd: 0.41 nM

B3: full-length CSNAP, C-terminally biotinylated (natural protein)
chain: MKPAVDEMFPEGAGPYVDLDEAGGSTGLLMDLAANEKAVHADFFNDFEDLFDDDDIQ-biotin
[1]
  koff: 0.00016 s⁻¹
[2]
  Kd: 0.068 nM

B4: 16AA C-CSNAP peptide, C-terminally biotinylated (peptide)
peptide: DFFNDFEDLFDDDDIQ-biotin
[1]
  koff: 0.0014 s⁻¹
[2]
  Kd: 0.4 nM

— paper PMC10355216 (2023)
